According to patent US20230103631A1, “PEPTIDES AS SELECTIVE GIP RECEPTOR AGONISTS” (Sanofi, priority 2020, published 2023):
*1 amine or outer side, *2 acyl side, *3 side chain or, on linkers, in order; H or OH if unused. Where no end group is shown, it is not given here. Side-chain parts run from the residue outwards. [ ]: non-standard residue; d: D form. The star is where a group is joined. C18 diacid = O=C(O)CCCCCCCCCCCCCCCCC(=O)*; γGlu = O=C(O)[C@H](CCC(=O)[*:2])N[*:1]; AEEA = NCCOCCOCC(=O)O; Aib = CC(C)(N)C(=O)O; Sar = CNCC(=O)O

T1: human GIP receptor (human, UniProt P48546 22-466)
T1 sequence (looked up): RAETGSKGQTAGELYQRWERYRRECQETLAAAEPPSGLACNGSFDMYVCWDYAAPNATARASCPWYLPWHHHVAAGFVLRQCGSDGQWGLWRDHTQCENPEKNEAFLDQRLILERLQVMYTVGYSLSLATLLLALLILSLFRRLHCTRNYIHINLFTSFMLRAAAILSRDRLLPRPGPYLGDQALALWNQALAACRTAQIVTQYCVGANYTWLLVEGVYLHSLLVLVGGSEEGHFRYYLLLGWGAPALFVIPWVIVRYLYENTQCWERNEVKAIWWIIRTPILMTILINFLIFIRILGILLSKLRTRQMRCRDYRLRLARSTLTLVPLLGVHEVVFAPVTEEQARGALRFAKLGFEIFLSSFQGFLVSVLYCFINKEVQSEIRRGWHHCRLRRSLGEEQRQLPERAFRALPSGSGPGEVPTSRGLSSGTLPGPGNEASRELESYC


Key:
[1] = in vivo; cited from earlier work
[2] = biological target: T1, human GIP receptor; test: cell-based or functional assay
[3] = biological target: T2, human GLP-1 receptor (human, UniProt P43220 24-463); test: cell-based or functional assay
[4] = biological target: T1, human GIP receptor; test: cell-based or functional assay; remark: listed apart in the source
[5] = biological target: T1, human GIP receptor; test: displacement of [125I]GIP from hGIPR HEK-293 membranes, SPA
[6] = biological target: T2, human GLP-1 receptor; test: displacement of [125I]GLP-1 from hGLP-1R HEK-293 membranes, SPA

Row | Molecule | half-life [1] [min] | EC50 hGIPR 0% HSA, cAMP in HEK-293 cells [2] [nM] | EC50 hGIPR 0.1% HSA, cAMP in HEK-293 cells [2] [nM] | EC50 hGLP-1R 0% HSA, cAMP in HEK-293 cells [3] [nM] | hGIPR EC50, cAMP in human adipocytes [4] [nM] | hGIPR Emax, cAMP in human adipocytes [4] [%] | IC50 [5] [nM] | IC50 [6] [nM]
1 | CC[C@H](C)[C@H](NC(=O)[C@H](CO)NC(=O)[C@H](Cc1ccc(O)cc1)NC(=O)[C@H](CC(=O)O)NC(=O)[C@H](CO)NC(=O)[C@@H](NC(=O)[C@H](Cc1ccccc1)NC(=O)[C@@H](NC(=O)CNC(=O)[C@H](CCC(=O)O)NC(=O)[C@H](C)NC(=O)[C@@H](N)Cc1ccc(O)cc1)[C@@H](C)O)[C@@H](C)CC)C(=O)N[C@@H](C)C(=O)N[C@@H](CCSC)C(=O)N[C@@H](CC(=O)O)C(=O)N[C@@H](CCCCN)C(=O)N[C@H](C(=O)N[C@@H](Cc1c[nH]cn1)C(=O)N[C@@H](CCC(N)=O)C(=O)N[C@@H](CCC(N)=O)C(=O)N[C@@H](CC(=O)O)C(=O)N[C@@H](Cc1ccccc1)C(=O)N[C@H](C(=O)N[C@@H](CC(N)=O)C(=O)N[C@@H](Cc1c[nH]c2ccccc12)C(=O)N[C@@H](CC(C)C)C(=O)N[C@@H](CC(C)C)C(=O)N[C@@H](C)C(=O)N[C@@H](CCC(N)=O)C(=O)N[C@@H](CCCCN)C(=O)NCC(=O)N[C@@H](CCCCN)C(=O)N[C@@H](CCCCN)C(=O)N[C@@H](CC(N)=O)C(=O)N[C@@H](CC(=O)O)C(=O)N[C@@H](Cc1c[nH]c2ccccc12)C(=O)N[C@@H](CCCCN)C(=O)N[C@@H](Cc1c[nH]cn1)C(=O)N[C@@H](CC(N)=O)C(=O)N[C@H](C(=O)N[C@H](C(=O)N[C@@H](CCC(N)=O)C(=O)O)[C@@H](C)O)[C@@H](C)CC)C(C)C)[C@@H](C)CC [SEQ ID NO: 1, GIP (glucose-dependent insulinotropic polypeptide)] | 2 |  |  |  |  |  |  | 
2 | Y[Aib]EGTFISDLSI[Aib]K([AEEA-AEEA-γGlu-C18 diacid])DRIHQEEFIEWLLAQGPSSGAPPPS-NH2 (N-terminus assumed; SMILES CC[C@H](C)[C@H](NC(=O)[C@H](Cc1ccccc1)NC(=O)[C@H](CCC(=O)O)NC(=O)[C@H](CCC(=O)O)NC(=O)[C@H](CCC(N)=O)NC(=O)[C@H](Cc1c[nH]cn1)NC(=O)[C@@H](NC(=O)[C@H](CCCNC(=N)N)NC(=O)[C@H](CC(=O)O)NC(=O)[C@H](CCCCNC(=O)COCCOCCNC(=O)COCCOCCNC(=O)CC[C@H](NC(=O)CCCCCCCCCCCCCCCCC(=O)O)C(=O)O)NC(=O)C(C)(C)NC(=O)[C@@H](NC(=O)[C@H](CO)NC(=O)[C@H](CC(C)C)NC(=O)[C@H](CC(=O)O)NC(=O)[C@H](CO)NC(=O)[C@@H](NC(=O)[C@H](Cc1ccccc1)NC(=O)[C@@H](NC(=O)CNC(=O)[C@H](CCC(=O)O)NC(=O)C(C)(C)NC(=O)[C@@H](N)Cc1ccc(O)cc1)[C@@H](C)O)[C@@H](C)CC)[C@@H](C)CC)[C@@H](C)CC)C(=O)N[C@@H](CCC(=O)O)C(=O)N[C@@H](Cc1c[nH]c2ccccc12)C(=O)N[C@@H](CC(C)C)C(=O)N[C@@H](CC(C)C)C(=O)N[C@@H](C)C(=O)N[C@@H](CCC(N)=O)C(=O)NCC(=O)N1CCC[C@H]1C(=O)N[C@@H](CO)C(=O)N[C@@H](CO)C(=O)NCC(=O)N[C@@H](C)C(=O)N1CCC[C@H]1C(=O)N1CCC[C@H]1C(=O)N1CCC[C@H]1C(=O)N[C@@H](CO)C(N)=O, Exendin-4 derived synthetic lipidated peptide of formula I) [SEQ ID NO: 9] |  | 0.00019 | 0.00194 | > 10 | 1.4 | 125 | 0.9 | 307
3 | Y[Aib]EGTFISDLSI[Aib]K([Gly-Gly-Gly-γGlu-C18 diacid])DRIHQ[Aib]EFIEWLLAQGPSSGAPPPS-NH2 (N-terminus assumed; SMILES CC[C@H](C)[C@H](NC(=O)[C@H](CCCNC(=N)N)NC(=O)[C@H](CC(=O)O)NC(=O)[C@H](CCCCNC(=O)CNC(=O)CNC(=O)CNC(=O)CC[C@H](NC(=O)CCCCCCCCCCCCCCCCC(=O)O)C(=O)O)NC(=O)C(C)(C)NC(=O)[C@@H](NC(=O)[C@H](CO)NC(=O)[C@H](CC(C)C)NC(=O)[C@H](CC(=O)O)NC(=O)[C@H](CO)NC(=O)[C@@H](NC(=O)[C@H](Cc1ccccc1)NC(=O)[C@@H](NC(=O)CNC(=O)[C@H](CCC(=O)O)NC(=O)C(C)(C)NC(=O)[C@@H](N)Cc1ccc(O)cc1)[C@@H](C)O)[C@@H](C)CC)[C@@H](C)CC)C(=O)N[C@@H](Cc1c[nH]cn1)C(=O)N[C@@H](CCC(N)=O)C(=O)NC(C)(C)C(=O)N[C@@H](CCC(=O)O)C(=O)N[C@@H](Cc1ccccc1)C(=O)N[C@H](C(=O)N[C@@H](CCC(=O)O)C(=O)N[C@@H](Cc1c[nH]c2ccccc12)C(=O)N[C@@H](CC(C)C)C(=O)N[C@@H](CC(C)C)C(=O)N[C@@H](C)C(=O)N[C@@H](CCC(N)=O)C(=O)NCC(=O)N1CCC[C@H]1C(=O)N[C@@H](CO)C(=O)N[C@@H](CO)C(=O)NCC(=O)N[C@@H](C)C(=O)N1CCC[C@H]1C(=O)N1CCC[C@H]1C(=O)N1CCC[C@H]1C(=O)N[C@@H](CO)C(N)=O)[C@@H](C)CC, Exendin-4 derived synthetic lipidated peptide of formula I) [SEQ ID NO: 5] |  | 0.00016 | 0.00175 | > 10 | 0.5 | 137 |  | 145
4 | Y[Aib]EGTFISDLSI[Aib]K([Sar-Sar-Sar-γGlu-C18 diacid])DRIHQ[Aib]EFIEWLLAQGPSSGAPPPS-NH2 (N-terminus assumed; SMILES CC[C@H](C)[C@H](NC(=O)[C@H](CCCNC(=N)N)NC(=O)[C@H](CC(=O)O)NC(=O)[C@H](CCCCNC(=O)CN(C)C(=O)CN(C)C(=O)CN(C)C(=O)CC[C@H](NC(=O)CCCCCCCCCCCCCCCCC(=O)O)C(=O)O)NC(=O)C(C)(C)NC(=O)[C@@H](NC(=O)[C@H](CO)NC(=O)[C@H](CC(C)C)NC(=O)[C@H](CC(=O)O)NC(=O)[C@H](CO)NC(=O)[C@@H](NC(=O)[C@H](Cc1ccccc1)NC(=O)[C@@H](NC(=O)CNC(=O)[C@H](CCC(=O)O)NC(=O)C(C)(C)NC(=O)[C@@H](N)Cc1ccc(O)cc1)[C@@H](C)O)[C@@H](C)CC)[C@@H](C)CC)C(=O)N[C@@H](Cc1c[nH]cn1)C(=O)N[C@@H](CCC(N)=O)C(=O)NC(C)(C)C(=O)N[C@@H](CCC(=O)O)C(=O)N[C@@H](Cc1ccccc1)C(=O)N[C@H](C(=O)N[C@@H](CCC(=O)O)C(=O)N[C@@H](Cc1c[nH]c2ccccc12)C(=O)N[C@@H](CC(C)C)C(=O)N[C@@H](CC(C)C)C(=O)N[C@@H](C)C(=O)N[C@@H](CCC(N)=O)C(=O)NCC(=O)N1CCC[C@H]1C(=O)N[C@@H](CO)C(=O)N[C@@H](CO)C(=O)NCC(=O)N[C@@H](C)C(=O)N1CCC[C@H]1C(=O)N1CCC[C@H]1C(=O)N1CCC[C@H]1C(=O)N[C@@H](CO)C(N)=O)[C@@H](C)CC, Exendin-4 derived synthetic lipidated peptide of formula I) [SEQ ID NO: 6] |  | 0.00017 | 0.00105 | > 10 | 0.3 | 112 |  | 173
